Assay results taken from patent publication US9783615B2, “Combination treatment of cancer” (UNIVERSITÉ DE LIÈGE, priority 2012, dated 2017).
Entries after “also recorded” stand apart in the source; their conditions may differ. One block for each molecule: values may come before it.

Key:
[1] = test system: MDA-MB231 cells expressing MT4-MMP; experiment: In vitro 3D Matrigel proliferation assay with DNA quantification; assay type: cell-based, human; conditions: 7 days; for effect on MT4-MMP-mediated mitogenic effect (cell proliferation, DNA content): 3D Matrigel matrix, signaling pathway inhibitors added to the culture medium
Procedure: The medium was changed every three days.
Inhibition of MT4-MMP-dependent mitogenic effect of cancer cells was performed in 3D culture matrix. […] The medium was changed every three days.

[2] = test system: MDA-MB 231 control (CTR) cells; conditions: 3D Matrigel matrix, 7 days
Procedure: Matrigel® mixed with an equal volume of culture medium was coated onto 24-well plates (300 μl/plate). Cells (104) suspended in 250 μl of medium were mixed with the same volume of cold Matrigel® and seeded on the previously coated Matrigel® layer. In some assays, growth factor-free Matrigel® was used (BD, Bioscience). For signaling pathway inhibition in the 3D culture model, cells were incubated in Matrigel® matrix and 24 h later several inhibitors were added to the culture medium at the indicated concentrations:
SB203580, Genistein, U0126, Wortmannin, PP2, SP600125, AG538 (Sigma), PD0332991 (Axon Medchem, Groningen, The Nederlands), MDL-12, GF109203x, AG1478 (Calbiochem, Gibbstown, N.J.). The medium was changed every three days. After 7 days, cells were recovered from 3D cultures upon treatment with 500 μl of Dispase (BD, Bioscience) for 2 h at 37° C. After two washes in PBS, cell pellet was diluted in PBS (1 ml) and sonicated.

[3] = target: T1, recombinant catalytic domain of MT4-MMP (MT4CAT) (Homo sapiens, UniProt Q9ULZ9); experiment: Inhibition of MT4-MMP enzymatic activity: cleavage of quenched fluorogenic peptide substrate (TACE substrate M-2255); assay type: biochemical; conditions: scFV clones at 14 nM; substrate 30 μM
T1 construct: Enzymatic activity of the recombinant catalytic domain of MT4-MMP (MT4CAT) was monitored
T1 sequence (Q9ULZ9 126-295 limits assumed): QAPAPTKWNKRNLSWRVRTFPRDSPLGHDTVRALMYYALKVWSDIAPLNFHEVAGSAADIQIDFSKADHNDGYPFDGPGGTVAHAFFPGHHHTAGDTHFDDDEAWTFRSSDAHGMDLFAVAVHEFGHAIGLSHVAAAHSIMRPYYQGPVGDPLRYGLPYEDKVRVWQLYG
Procedure: Inhibition of enzymatic activity of MT4-MMP was quantified by measuring the cleavage of quenched fluorogenic peptide substrate by the recombinant catalytic domain of MT4-MMP (MT4-CAT) in the presence or absence of MT4-MMP blocking antibodies (scFV). MT4-CAT (4.5 μM) was pre-incubated with MT4-MMP blocking antibodies (14 nM) for 30 min at 4° C. in buffer containing (50 mM Tris-HCl (pH 7.4); 5 mM CaCl2; ZnCl2 1 μM; 0.005%, Brij, 2% DMSO) before incubation with 30 μM of the fluorogenic substrate (pro-tumor necrosis factor-α converting enzyme (TACE) fluorogenic peptide substrate; Mca-(endo-1a-Dap(Dnp))-TNF-α (−5 to +6) amide (human), M-2255, Bachem AG, Switzerland).
Neutralizing capacity of antibodies. The enzymatic activity of the recombinant catalytic domain of MT4-MMP (MT4CAT) was monitored by the cleavage of quenched fluorogenic peptide substrate pro-tumor necrosis factor-α converting enzyme (TACE) (M-2255, BACHEM) and using Luminescence spectrometer (SPECTRA MAX; GIMINI). […] The cleavage of quenched fluorogenic peptide was monitored by measuring relative fluorescence units (RFU) during the incubation time (seconds) in the absence of inhibitor (MTCAT+No inhibitor) or in the presence of BB94 (20 μM) or of the scFV clones (14 nM). […]

[4] = target: T2, MT4-MMP inactivated by mutation in its catalytic site (E249A) (Homo sapiens, UniProt Q9ULZ9, E249A); experiment: Antibody specificity by Western blot; assay type: binding; conditions: scFV 1 μg/ml
T2 sequence (Q9ULZ9 126-565 E249A): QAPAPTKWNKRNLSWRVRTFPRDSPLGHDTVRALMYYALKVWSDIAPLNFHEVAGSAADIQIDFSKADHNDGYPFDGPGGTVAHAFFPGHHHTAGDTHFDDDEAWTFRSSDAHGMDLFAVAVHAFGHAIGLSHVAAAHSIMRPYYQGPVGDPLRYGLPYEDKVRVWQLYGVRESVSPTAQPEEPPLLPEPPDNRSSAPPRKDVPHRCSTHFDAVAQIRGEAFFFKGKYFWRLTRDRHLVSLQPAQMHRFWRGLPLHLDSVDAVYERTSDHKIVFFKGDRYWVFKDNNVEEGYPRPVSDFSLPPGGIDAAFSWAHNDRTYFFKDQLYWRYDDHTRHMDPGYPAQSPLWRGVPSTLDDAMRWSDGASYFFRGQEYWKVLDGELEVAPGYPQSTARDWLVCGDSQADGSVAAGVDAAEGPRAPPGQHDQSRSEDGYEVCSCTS
Procedure: (§1) In detail, antibody specificity was assessed by Western blot. Recombinant MT4-MMP (1 μg) was incubated with purified scFV clones (1 μg/ml) that contain a myc tag. Membranes were first incubated with a monoclonal mouse anti-myc antibody (clone 9E10, Sigma M5546) (1/1000) and then with HRP conjugated anti-mouse antibody (FIG. 14 A).

[5] = target: T3, active wild type recombinant MT4-MMP (Homo sapiens, UniProt Q9ULZ9); experiment: Antibody specificity by Western blot; assay type: binding; conditions: scFV 1 μg/ml
T3 construct: made in house
T3 sequence (Q9ULZ9 126-565): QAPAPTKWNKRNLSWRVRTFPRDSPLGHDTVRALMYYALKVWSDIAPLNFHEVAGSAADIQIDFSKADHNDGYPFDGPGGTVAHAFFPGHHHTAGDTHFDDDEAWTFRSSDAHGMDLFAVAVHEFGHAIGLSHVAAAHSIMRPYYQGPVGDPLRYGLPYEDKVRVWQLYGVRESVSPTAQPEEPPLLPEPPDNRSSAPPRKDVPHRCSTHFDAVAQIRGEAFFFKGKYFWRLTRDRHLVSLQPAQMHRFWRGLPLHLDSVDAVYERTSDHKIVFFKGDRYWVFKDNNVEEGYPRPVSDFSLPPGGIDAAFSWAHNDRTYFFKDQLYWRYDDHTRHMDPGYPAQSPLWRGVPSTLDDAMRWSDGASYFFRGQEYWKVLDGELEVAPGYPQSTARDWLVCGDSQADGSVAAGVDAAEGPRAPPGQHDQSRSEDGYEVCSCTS
Procedure: as §1

[6] = test system: MMP2; experiment: Antibody specificity by Western blot; assay type: binding
[7] = target: T4, MT1-MMP (MMP14) (Homo sapiens, UniProt P50281); experiment: Antibody specificity by Western blot; assay type: binding
T4 construct: but not to MT1-MMP, MT3-MMP and MMP 2 catalytic domains

[8] = target: T5, MT3-MMP (MMP16) (Homo sapiens, UniProt P51512); experiment: Antibody specificity by Western blot; assay type: binding
T5 construct: but not to MT1-MMP, MT3-MMP and MMP 2 catalytic domains

[9] = target: T6, recombinant MT4-CAT protein (Homo sapiens, UniProt Q9ULZ9); experiment: Antibody affinity on immobilized protein in 96 well-plates (absorbance at 450 nm); assay type: binding; conditions: 0-3 μg of MT4-CAT per well
T6 construct: Enzymatic activity of the recombinant catalytic domain of MT4-MMP (MT4CAT) was monitored
T6 sequence (Q9ULZ9 126-295 limits assumed): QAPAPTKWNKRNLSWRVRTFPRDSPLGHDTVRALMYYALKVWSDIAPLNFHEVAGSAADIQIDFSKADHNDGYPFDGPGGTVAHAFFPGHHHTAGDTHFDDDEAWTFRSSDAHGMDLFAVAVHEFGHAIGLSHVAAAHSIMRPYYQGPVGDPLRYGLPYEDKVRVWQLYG
Procedure: For determining antibody affinity recombinant MT4-CAT protein and BSA (background) was immobilized on 96 well-plates [0-3 μg of MT4-CAT in 15 mM Na-bicarbonate (pH 9.6)/well] for 18 h, at +4° C. Non-specific blockage was carried out by incubation of 3% (w/v) BSA/PBS, 0.01% (v/v) Tween-20, for 1 h, at +4° C. The detection of the bound antibody was carried out with 1:2000 diluted mouse anti-myc antibody (clone 9E10, Sigma M5546) incubated for 1 h, at room temperature, followed by 15 min incubation with HRP-conjugated anti-mouse antibody. After adding TMB substrate, the absorbance was measured at 450 nm Multiskan FC (Thermo Scientific, Rockford, USA).

[10] = target: T7, inactive mutated form of MT4-MMP (E249A) (Homo sapiens, UniProt Q9ULZ9, E249A); experiment: Antibody specificity by ELISA; assay type: binding
T7 sequence (Q9ULZ9 126-565 E249A): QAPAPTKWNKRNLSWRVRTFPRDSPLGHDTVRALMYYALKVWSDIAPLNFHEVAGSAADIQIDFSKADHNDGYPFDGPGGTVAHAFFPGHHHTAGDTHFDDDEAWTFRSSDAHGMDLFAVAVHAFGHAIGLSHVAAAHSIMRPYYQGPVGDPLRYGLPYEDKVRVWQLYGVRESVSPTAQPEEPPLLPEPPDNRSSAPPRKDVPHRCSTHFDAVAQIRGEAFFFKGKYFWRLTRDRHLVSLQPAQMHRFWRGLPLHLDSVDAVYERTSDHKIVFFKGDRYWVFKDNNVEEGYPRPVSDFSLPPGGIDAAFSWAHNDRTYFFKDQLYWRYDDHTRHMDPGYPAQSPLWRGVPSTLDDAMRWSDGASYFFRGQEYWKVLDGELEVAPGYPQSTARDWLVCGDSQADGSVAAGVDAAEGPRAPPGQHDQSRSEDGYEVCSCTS
Excerpt: (§2) The specificity of K4H7 antibody evaluated by ELISA. […] BSA (column 2) and the absence of protein (column 1: blank) were used as control.

[11] = target: T8, recombinant wild-type MT4-MMP (Homo sapiens, UniProt Q9ULZ9); experiment: Antibody specificity by ELISA; assay type: binding; conditions: 3 μg protein
T8 construct: made in house
T8 sequence (Q9ULZ9 126-565): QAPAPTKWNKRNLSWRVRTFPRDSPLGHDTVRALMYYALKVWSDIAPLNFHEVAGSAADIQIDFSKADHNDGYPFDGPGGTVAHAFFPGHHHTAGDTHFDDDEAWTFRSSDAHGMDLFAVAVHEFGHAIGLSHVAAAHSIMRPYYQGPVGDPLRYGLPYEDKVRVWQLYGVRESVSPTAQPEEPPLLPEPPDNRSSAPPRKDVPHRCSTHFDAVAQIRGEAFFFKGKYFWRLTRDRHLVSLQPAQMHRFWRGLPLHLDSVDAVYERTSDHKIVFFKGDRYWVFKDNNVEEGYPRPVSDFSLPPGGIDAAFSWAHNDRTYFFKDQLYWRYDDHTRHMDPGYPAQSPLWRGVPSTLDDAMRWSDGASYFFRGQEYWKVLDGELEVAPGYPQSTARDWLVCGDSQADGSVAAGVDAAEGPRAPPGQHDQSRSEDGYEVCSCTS
Excerpt: as §2

T5 sequence (P51512 120-291 limits assumed, species assumed): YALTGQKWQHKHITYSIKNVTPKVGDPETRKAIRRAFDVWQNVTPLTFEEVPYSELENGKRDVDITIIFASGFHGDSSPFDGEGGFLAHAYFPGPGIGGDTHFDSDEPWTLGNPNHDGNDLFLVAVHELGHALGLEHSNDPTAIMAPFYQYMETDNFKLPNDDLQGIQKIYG

Molecule: N#C/C(=C\c1ccc(O)c(O)c1)C(=O)c1ccc(O)c(O)c1 [AG538]
effect on MT4-MMP-mediated mitogenic effect (cell proliferation, DNA content) [1]: No change

Molecule: N#CC(=C(/N)Sc1ccccc1N)/C(C#N)=C(\N)Sc1ccccc1N [U0126]
effect on MT4-MMP-mediated mitogenic effect (cell proliferation, DNA content) [1]: markedly inverted the proliferative phenotype | effect on proliferative rate in control cells [2]: without affecting the proliferative rate

Molecule: COc1cc2ncnc(Nc3cccc(Cl)c3)c2cc1OC [AG1478]
effect on MT4-MMP-mediated mitogenic effect (cell proliferation, DNA content) [1]: significantly reduced

Molecule: O=c1c(-c2ccc(O)cc2)coc2cc(O)cc(O)c12 [genistein]
effect on MT4-MMP-mediated mitogenic effect (cell proliferation, DNA content) [1]: strongly inhibited

Molecule: CC(C)(C)n1nc(-c2ccc(Cl)cc2)c2c(N)ncnc21 [PP2, 4-amino-5-(4-chlorophenyl)-7-(t-butyl)pyrazol[3,4-d]pyrimidine]
effect on MT4-MMP-mediated mitogenic effect (cell proliferation, DNA content) [1]: No change

Molecule: CC(=O)c1c(C)c2cnc(Nc3ccc(N4CCNCC4)cn3)nc2n(C2CCCC2)c1=O [PD0332991]
effect on MT4-MMP-mediated mitogenic effect (cell proliferation, DNA content) [1]: inhibited

Molecule: C#Cc1cccc(Nc2ncnc3cc(OCCOC)c(OCCOC)cc23)c1 [erlotinib]
inhibition of proliferation of cancer cells (DNA content) ([1]; single treatment 1 μM, 3D Matrigel): partially inhibited; also recorded: reduced cell proliferation

recognition of MT4-MMP E249A mutant [4]: recognized specifically | recognition of wild type recombinant MT4-MMP [5]: recognized specifically | recognition of MT1-MMP (MMP14) [7]: do not recognize | recognition of MT3-MMP (MMP16) [8]: do not recognize | binding to inactive MT4-MMP (E249A) [10]: binds specifically | binding to wild-type MT4-MMP [11]: binds specifically
B1: K4H7: human scFv antibody that specifically binds and neutralizes MT4-MMP; VH SEQ ID NO: 26, VL SEQ ID NO: 27, complete scFv SEQ ID NO: 28 (protein)
scFv: QVQLVQSGGGLVKPGRSLRLSCTASGFTFGDYAMSWFRQAPGKGLEWVGFIRSKAYGGTTEYAASVKGRFTISRDDSKSIAYLQMNSLKTEDTAVYYCTRGSSGWFLNWFDPWGQGTLVTVSSLEGGGGSGGGGSGGGGSELETTLTQSPATLSLSPGERATLSCRASQSISSSYLAWYQHKPGQAPRLLIYGASRRATGIPDRFSGSGSGTDFSLTISRLEPEDFAVYYCLHYGSSKWTFGQGTKVEIKR
inhibition of MT4-MMP enzymatic activity (neutralizing capacity) [3]: able to inhibit; also recorded: inhibited completely | reduction of cell proliferation (DNA content) ([1]; single treatment 20 μg/ml, 3D Matrigel): reduced cell proliferation | recognition of MMP2 [6]: do not recognize | affinity / capacity to bind recombinant MT4-MMP, compared among the three scFV clones [9]: highest capacity to bind; also recorded: highest affinity
